Experimental findings from FireProtDB (doi:10.1021/bi9929958) are described below.

B1: Superoxide dismutase [Mn], mitochondrial, P04179 (parent)
chain: MLSRAVCGTSRQLAPVLGYLGSRQKHSLPDLPYDYGALEPHINAQIMQLHHSKHHAAYVNNLNVTEEKYQEALAKGDVTAQIALQPALKFNGGGHINHSIFWTNLSPNGGGEPKGELLEAIKRDFGSFDKFKEKLTAASVGVQGSGWGWLGFNKERGHLQIAACPNQDPLQGTTGLIPLLGIDVWEHAYYLQYKNVRPDYLKAIWNVINWENVTERYMACKK

In the series the parent is B1. The settings on record: Homo sapiens; pH 7.8; Thermal; DSC; Potassium phosphate 20 mM; reversible: yes; structure 1N0J; whole UniProt chain shown.

As for Q167A, the Tm (commonly the temperature at the midpoint of the melting transition) stood at 79.8 °C and the “change of melting temperature, mutant - wild type (higher = more stable)” value (from here on “change of melting temperature, mutant”) was -9.1 °C.
As to Q167S, the Tm was determined as 94.9 °C and the “change of melting temperature, mutant” value amounted to 6 °C.
On to Q167V, for which the Tm came to 68.2 °C and the “change of melting temperature, mutant” value was -20.7 °C.
Consider Q167E, for which the Tm amounted to 103 °C and the “change of melting temperature, mutant” value was determined as 14.1 °C.
The matching figures for Q167H: 88.9 °C and 0 °C.
